Results published in article PMC8639797 (Nature, 2021).

Biological target: T1, trx-ALKAL2-AD^RC (K94E/K96E/K99E/H100E) (human, UniProt Q6UX46 77-152, K94E | K96E | K99E | H100E)
T1 sequence (looked up): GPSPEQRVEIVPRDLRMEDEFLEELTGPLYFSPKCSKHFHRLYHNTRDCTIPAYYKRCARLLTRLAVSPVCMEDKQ
Assay: BLI

B1: site-specifically biotinylated ALK-ECR^ABR (from Fc-ALKavi) (domain or fragment, human)
chain: QTPIFDPTVHWLFTTCGASGPHGPTQAQCNNAYQNSNLSVEVGSEGPLKGIQIWKVPATDTYSISGYGAAGGKGGKNTMMRSHGVSVLGIFNLEKDDMLYILVGQQGEDACPSTNQLIQKVCIGENNVIEEEIRVNRSVHEWAGGGGGGGGATYVFKMKDGVPVPLIIAAGGGGRAYGAKTDTFHPERLENNSSVLGLNGNSGAAGGGGGWNDNTSLLWAGKSLQEGATGGHSCPQAMKKWGWETRGGFGGGGGGCSSGGGGGGYIGGNAASNNDPEMDGEDGVSFISPLGILYTPALKVMEGHGEVNIKHYLNCSHCEVDECHMDPESHKVICFCDHGTVLAEDGVSCIVSP
modifications: biotin on the C-terminal biotin acceptor peptide (co-expressed BirA)
  binding result: binds
